Laboratory results as given in the supplement of paper PMC10567573.

B1: SPDEF (parent)
chain: FQELAGKELCAMSEEQFRQRSPLG

Variants of: B1
Experiment: protein stability index of a GFP-peptide fusion (GPS, HEK-293T) (PSI 1-6); higher = more stable
Conditions: c terminus: a fixed tail appended
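Note: lentivirally expressed fusions sorted by FACS into six bins by GFP to DsRed ratio, PSI derived from sequencing read proportions per bin multiplied by bin number.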

Variant	protein stability index
YQELAGKELCAMSEEQFRQRSPLG [F1Y]	3.02
SQELAGKELCAMSEEQFRQRSPLG [F1S]	4.61
QQELAGKELCAMSEEQFRQRSPLG [F1Q]	4.93
TQELAGKELCAMSEEQFRQRSPLG [F1T]	4.55
RQELAGKELCAMSEEQFRQRSPLG [F1R]	4.99
GQELAGKELCAMSEEQFRQRSPLG [F1G]	4.57
CQELAGKELCAMSEEQFRQRSPLG [F1C]	3.9
DQELAGKELCAMSEEQFRQRSPLG [F1D]	4.94
FQELAGKELCQMSEEQFRQRSPLG [A11Q]	3.55
FQELAGKELCSMSEEQFRQRSPLG [A11S]	2.31
FQELAGKELCPMSEEQFRQRSPLG [A11P]	3.56
FQELAGKELCGMSEEQFRQRSPLG [A11G]	2.94
FQELAGKELCEMSEEQFRQRSPLG [A11E]	3.49
FQELAGKELCCMSEEQFRQRSPLG [A11C]	1.83
FQELAGKELCFMSEEQFRQRSPLG [A11F]	2.5
FQELAGKELCKMSEEQFRQRSPLG [A11K]	2.61
FQELAGKELCMMSEEQFRQRSPLG [A11M]	2.35
FQELAGKELCDMSEEQFRQRSPLG [A11D]	4.66
FQELAGKELCAMSEEQFRMRSPLG [Q19M]	2.33
FQELAGKELCAMSEEQFRGRSPLG [Q19G]	2.53
FQELAGKELCAMSEEQFRSRSPLG [Q19S]	2.45
FQELAGKELCAMSEEQFRERSPLG [Q19E]	4.17
FQELAGKELCAMSEEQFRPRSPLG [Q19P]	2.74
FQELAGKELCAMSEEQFRFRSPLG [Q19F]	2.23

Variant	protein stability index
FQELAGKELCAMSEEQDRQRSPLG [F17D]	3.85
FQELAGKELCAMSEEQCRQRSPLG [F17C]	3.14
FQELAGKELCAMSEEQPRQRSPLG [F17P]	3.28
FQELAGKELCAMSEEQKRQRSPLG [F17K]	3.25
FQELAGKELCAMSEEQLRQRSPLG [F17L]	3.14
FQELAGKELCAMSEEQVRQRSPLG [F17V]	3.1
FQELAGKELCAMSEEQYRQRSPLG [F17Y]	2.93
FQELAGKELCAISEEQFRQRSPLG [M12I]	2.46
FQELAGKELCACSEEQFRQRSPLG [M12C]	2.39
FQELAGKELCAHSEEQFRQRSPLG [M12H]	2.9
FQELAGKELCAVSEEQFRQRSPLG [M12V]	2.83
FQELAGKELCAQSEEQFRQRSPLG [M12Q]	3.19
FQELAGKELCASSEEQFRQRSPLG [M12S]	3.75
FQELAGKELCARSEEQFRQRSPLG [M12R]	3.34
FQELAGKELCAMSEEQFRQRSPKG [L23K]	3.21
FQELAGKELCAMSEEQFRQRSPNG [L23N]	3.46
FQELAGKELCAMSEEQFRQRSPPG [L23P]	3.25
FQELAGKELCAMSEEQFRQRSPQG [L23Q]	3.58
FQELAGKELCAMSEEQFRQRSPDG [L23D]	2.8
FQELAGKELCAMSEEQFRQRSPHG [L23H]	3.18
FQELAGKELCAMSEEQFRQRSPRG [L23R]	3.24
FQELAGKELCAMSEEQFRQRSPCG [L23C]	2.63
FQELAGKTLCAMSEEQFRQRSPLG [E8T]	1.99
FQELAGKMLCAMSEEQFRQRSPLG [E8M]	2.5

Variant	protein stability index
FQELAGKNLCAMSEEQFRQRSPLG [E8N]	2.27
FQELAGKILCAMSEEQFRQRSPLG [E8I]	1.53
FQELAGKPLCAMSEEQFRQRSPLG [E8P]	2.06
FQELAGKALCAMSEEQFRQRSPLG [E8A]	2.37
FQELAGKGLCAMSEEQFRQRSPLG [E8G]	1.73
FQELAGKELCAMSDEQFRQRSPLG [E14D]	2.89
FQELAGKELCAMSTEQFRQRSPLG [E14T]	1.89
FQELAGKELCAMSKEQFRQRSPLG [E14K]	2.15
FQELAGKELCAMSMEQFRQRSPLG [E14M]	2.03
FQELAGKELCAMSREQFRQRSPLG [E14R]	2.52
FQELAGKELCAMSNEQFRQRSPLG [E14N]	2.81
FQELAGKELCAMSPEQFRQRSPLG [E14P]	2.38
FQELAGKELCAMSFEQFRQRSPLG [E14F]	2.22
FQELAGKELCAMSEEQFRQRAPLG [S21A]	2.73
FQELAGKELCAMSEEQFRQREPLG [S21E]	2.58
FQELAGKELCAMSEEQFRQRHPLG [S21H]	2.82
FQELAGKELCAMSEEQFRQRVPLG [S21V]	2.99
FQELAGKELCAMSEEQFRQRKPLG [S21K]	2.44
FQELAGKELCAMSEEQFRQRMPLG [S21M]	2.74
FQELAGKELCAMSEEQFRQRTPLG [S21T]	2.59
FQELAGKELCAMSEEQFRQRYPLG [S21Y]	2.96
FQELAGKELCAMSEEQFRQRFPLG [S21F]	3.17
FQELATKELCAMSEEQFRQRSPLG [G6T]	3.32
FQELADKELCAMSEEQFRQRSPLG [G6D]	3.62

Variant	protein stability index
FQELAWKELCAMSEEQFRQRSPLG [G6W]	2.65
FQELACKELCAMSEEQFRQRSPLG [G6C]	2.28
FQELAHKELCAMSEEQFRQRSPLG [G6H]	2.73
FQELAFKELCAMSEEQFRQRSPLG [G6F]	1.84
FQELAMKELCAMSEEQFRQRSPLG [G6M]	2.46
FQELAPKELCAMSEEQFRQRSPLG [G6P]	3.7
FQELAGKELMAMSEEQFRQRSPLG [C10M]	2.91
FQELAGKELAAMSEEQFRQRSPLG [C10A]	3.31
FQELAGKELTAMSEEQFRQRSPLG [C10T]	3.52
FQELAGKELQAMSEEQFRQRSPLG [C10Q]	3.46
FQELAGKELIAMSEEQFRQRSPLG [C10I]	3.34
FQELAGKELRAMSEEQFRQRSPLG [C10R]	3.12
FQGLAGKELCAMSEEQFRQRSPLG [E3G]	2.11
FQVLAGKELCAMSEEQFRQRSPLG [E3V]	2.44
FQMLAGKELCAMSEEQFRQRSPLG [E3M]	1.79
FQTLAGKELCAMSEEQFRQRSPLG [E3T]	2.22
FQKLAGKELCAMSEEQFRQRSPLG [E3K]	3.3
FQILAGKELCAMSEEQFRQRSPLG [E3I]	2.55
FQRLAGKELCAMSEEQFRQRSPLG [E3R]	3.33
FQELAGKELCAMSETQFRQRSPLG [E15T]	2.38
FQELAGKELCAMSELQFRQRSPLG [E15L]	2.32
FQELAGKELCAMSEQQFRQRSPLG [E15Q]	2.71
FQELAGKELCAMSERQFRQRSPLG [E15R]	2.5
FQELAGKELCAMSEMQFRQRSPLG [E15M]	2.19

Variant	protein stability index
FQELAGKELCAMSEKQFRQRSPLG [E15K]	2.24
FQELAGKELCAMSEIQFRQRSPLG [E15I]	2.04
FQELAGKELCAMSEWQFRQRSPLG [E15W]	2.56
FQELAGKELCAMSESQFRQRSPLG [E15S]	2.21
FQELAGKELCAMSEDQFRQRSPLG [E15D]	2.74
FQELAGKELCAMSEVQFRQRSPLG [E15V]	1.93
FQELAGSELCAMSEEQFRQRSPLG [K7S]	2.94
FQELAGGELCAMSEEQFRQRSPLG [K7G]	3
FQELAGNELCAMSEEQFRQRSPLG [K7N]	2.84
FQELAGCELCAMSEEQFRQRSPLG [K7C]	1.99
FQELAGLELCAMSEEQFRQRSPLG [K7L]	2.3
FQELAGPELCAMSEEQFRQRSPLG [K7P]	3.35
FQELAGDELCAMSEEQFRQRSPLG [K7D]	4.25
FQELAGTELCAMSEEQFRQRSPLG [K7T]	3.38
FQELAGMELCAMSEEQFRQRSPLG [K7M]	2.97
FQELAGKELCAMSEEIFRQRSPLG [Q16I]	2.49
FQELAGKELCAMSEEKFRQRSPLG [Q16K]	2.28
FQELAGKELCAMSEERFRQRSPLG [Q16R]	2.6
FQELAGKELCAMSEEEFRQRSPLG [Q16E]	3.06
FQELAGKELCAMSEEFFRQRSPLG [Q16F]	2.13
FQELAGKELCAMSEESFRQRSPLG [Q16S]	2.56
FQELAGKELCAMSEENFRQRSPLG [Q16N]	2.74
FYELAGKELCAMSEEQFRQRSPLG [Q2Y]	2.96
FHELAGKELCAMSEEQFRQRSPLG [Q2H]	2.57

Variant	protein stability index
FDELAGKELCAMSEEQFRQRSPLG [Q2D]	4.74
FIELAGKELCAMSEEQFRQRSPLG [Q2I]	2.17
FRELAGKELCAMSEEQFRQRSPLG [Q2R]	3.32
FFELAGKELCAMSEEQFRQRSPLG [Q2F]	3.35
FQELVGKELCAMSEEQFRQRSPLG [A5V]	3.44
FQELLGKELCAMSEEQFRQRSPLG [A5L]	1.82
FQELWGKELCAMSEEQFRQRSPLG [A5W]	1.9
FQELRGKELCAMSEEQFRQRSPLG [A5R]	2.17
FQELSGKELCAMSEEQFRQRSPLG [A5S]	2.24
FQELNGKELCAMSEEQFRQRSPLG [A5N]	2.82
FQELQGKELCAMSEEQFRQRSPLG [A5Q]	3.32
FQELPGKELCAMSEEQFRQRSPLG [A5P]	3.58
FQELKGKELCAMSEEQFRQRSPLG [A5K]	3.27
FQELGGKELCAMSEEQFRQRSPLG [A5G]	2.88
FQELAGKERCAMSEEQFRQRSPLG [L9R]	3.24
FQELAGKEICAMSEEQFRQRSPLG [L9I]	3.19
FQELAGKENCAMSEEQFRQRSPLG [L9N]	4.37
FQELAGKEKCAMSEEQFRQRSPLG [L9K]	3.61
FQELAGKEDCAMSEEQFRQRSPLG [L9D]	4.79
FQELAGKEGCAMSEEQFRQRSPLG [L9G]	4.34
FQELAGKELCAMSEEQFRQCSPLG [R20C]	2.4
FQELAGKELCAMSEEQFRQYSPLG [R20Y]	2.43
FQELAGKELCAMSEEQFRQHSPLG [R20H]	2.74
FQELAGKELCAMSEEQFRQFSPLG [R20F]	2.2

Variant	protein stability index
FQELAGKELCAMSEEQFRQTSPLG [R20T]	2.91
FQELAGKELCAMSEEQFRQASPLG [R20A]	2.79
FQELAGKELCAMSEEQFRQQSPLG [R20Q]	2.72
FQELAGKELCAMSEEQFRQNSPLG [R20N]	3.04
FQELAGKELCAMSEEQFRQSSPLG [R20S]	2.88
FQELAGKELCAMSEEQFRQPSPLG [R20P]	2.58
FQELAGKELCAMAEEQFRQRSPLG [S13A]	3.62
FQELAGKELCAMFEEQFRQRSPLG [S13F]	2.15
FQELAGKELCAMCEEQFRQRSPLG [S13C]	2.11
FQELAGKELCAMWEEQFRQRSPLG [S13W]	2.08
FQELAGKELCAMYEEQFRQRSPLG [S13Y]	2.4
FQEIAGKELCAMSEEQFRQRSPLG [L4I]	3.15
FQEVAGKELCAMSEEQFRQRSPLG [L4V]	3.85
FQEKAGKELCAMSEEQFRQRSPLG [L4K]	3.59
FQENAGKELCAMSEEQFRQRSPLG [L4N]	3.8
FQEGAGKELCAMSEEQFRQRSPLG [L4G]	3.97
FQERAGKELCAMSEEQFRQRSPLG [L4R]	3
FQELAGKELCAMSEEQFRQRSPLD [G24D]	3.14
FQELAGKELCAMSEEQFRQRSPLP [G24P]	2.89
FQELAGKELCAMSEEQFRQRSPLY [G24Y]	2.12
FQELAGKELCAMSEEQFRQRSPLA [G24A]	2.94
FQELAGKELCAMSEEQFRQRSPLI [G24I]	2.1
FQELAGKELCAMSEEQFRQRSPLL [G24L]	2.67
FQELAGKELCAMSEEQFRQRSPLQ [G24Q]	2.44

Variant	protein stability index
FQELAGKELCAMSEEQFRQRSPLF [G24F]	2.05
FQELAGKELCAMSEEQFRQRSPLW [G24W]	1.93
FQELAGKELCAMSEEQFRQRSPLR [G24R]	2.42
FQELAGKELCAMSEEQFMQRSPLG [R18M]	2.51
FQELAGKELCAMSEEQFKQRSPLG [R18K]	2.46
FQELAGKELCAMSEEQFTQRSPLG [R18T]	2.83
FQELAGKELCAMSEEQFHQRSPLG [R18H]	2.64
FQELAGKELCAMSEEQFAQRSPLG [R18A]	2.93
FQELAGKELCAMSEEQFNQRSPLG [R18N]	2.96
FQELAGKELCAMSEEQFDQRSPLG [R18D]	3.37
FQELAGKELCAMSEEQFPQRSPLG [R18P]	2.92
FQELAGKELCAMSEEQFRQRSDLG [P22D]	2.62
FQELAGKELCAMSEEQFRQRSCLG [P22C]	2.62
FQELAGKELCAMSEEQFRQRSLLG [P22L]	2.88
FQELAGKELCAMSEEQFRQRSKLG [P22K]	2.77
FQELAGKELCAMSEEQFRQRSNLG [P22N]	2.59
FQELAGKELCAMSEEQFRQRSALG [P22A]	2.64
FQELAGKELCAMSEEQFRQRSMLG [P22M]	2.56
FQELAGKELCAMSEEQFRQRSILG [P22I]	2.42
FQELAGKELCAMSEEQFRQRSHLG [P22H]	3.45
